Variants at the floor of the assay were thinned out.
B1: TPR 5TU (parent)
chain: GGAUCUUCUCGAUCUAACAAAAAAGACAAAUCUGCCACAAAGCUUGAGAGCAUCUUCGGAUGCAGAGGCGGCAGCCUUCGGUGGCGCGAUAGCGCCAACGUUCUCAACUAUGACACGCAAAACGCGUGCUCCGUUGAAUGGAGUUUAUCAUG

Variants of: B1
Assay: polymerase ribozyme fitness, log enrichment relative to wild type (log ratio); higher = more active; in vitro selection for triplet polymerase activity
Procedure, shortened: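 Frozen incubation at −7 °C formed the core of a single, triplicate in vitro selection round applied to PCR-built, transcribed mutant libraries of each subunit of a heterodimeric triplet polymerase ribozyme. Extended constructs were gel-excised, captured with streptavidin beads and amplified by RT-PCR, and input and output libraries were Illumina-sequenced with a filter of ≥10 input reads and ≥1 read per output. Fitness is the logarithm of genotype enrichment relative to wild-type enrichment, with inverse-variance-weighted replicate averaging, and the logarithm is base 2.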

Compared with GGAUCUUCUCGUUCUAACAAAAAAGACAAAUCUGCCACAAAGCUUGAGAGCAUCUUCGGAUGCAGAGGCGGCAGCCUUCGGUGGCGCGAUAGCGCUAACGUUCUCAACUAUGACACGCAAAACGCGUGCUCCGUUGAAUGGAGUUUAUCAUG, GGAUCUUCUCGUUCUAACAAAAAAGACAAAUCUGCCACAAAGCUUGAGAGCAUCUUCGGAUGCAGAGGCGGCAGCCUUCGGUGCCGCGAUAGUGCCAACGUUCUCAACUAUGACACGCAAAACGCGUGCUCCGUUGAAUAGAGUUUAUCAUG is lower in “polymerase ribozyme fitness (log ratio)” value: -0.566 for the first, ≤ -4.2 for the second.

GGAUCUUCUCGUUCUAACAAAAAAGACAAAUCUGCCACAAAGCUUGAUAGCAAGUUCGGAUGCAGAGGCGACAGGCUUCGGUGGCACGAUAGCGUCAACGUUCUCAACUAUGACACGCCAAACGCGUGCUCCGUUGAAUGGAGUUUAUCAUG and GGAUCUUCUCGUUCUAACAAAAAAGACAAAUCUCCCACAAAGCUUAAGAGCAUCUUCGGAUGCAGAGGCGGCAGCCUUCGGUAGCGCGAUAGCGCCAACGUUCUCAACUAUGACACGCAAUACGCGUGCUCCGUUGAAUGUAGUUUAUCAUG cannot be ordered by “polymerase ribozyme fitness (log ratio)” value: ≤ -4.2 for the first, ≤ -4.2 for the second.

First: GGAUCUUCUCGUUCGAACAAAAAAGACAAAUCUGCCACAAAGCUUGAGAGCAUCUACGGAUGCAGAGGCGCCAGCCUUCGGUGACGCGAUAGCGCCAACGUUCUCAACUAUGACACUCAUAACGCGUGCUCCGUUGAAUGGAGUUUUUCAUG
Second: GGAUCUUCUCGUUCUAACAAAAAAGACAAAUCUCCCACAAAGCUUGAGAGCAUCUUCGGAUCCAGAGGCGGCUGCCUUCGGUGGCGCGAUAGCGCUAACGUUCUCAGCUAUGACAGGCAAAACGCGUGCUCCGUUGAAUGGAGUUUGUCAUG
The “polymerase ribozyme fitness (log ratio)” value of the first is higher: -3.53 for the first, ≤ -4.2 for the second.

Going from GGAUCUUCUCGUUCUAACAAAAAAGACAAAUCUGCCACAAAGCUUGAGAGCAUCUUCGGAUGCAGAGGCGGCAGCCUUCGGUGGCGCGAUAGCGCCAACGUUCUCAACUAUGACACGUCAAACGCGUGCUCCGUUAAAUGGACUUUAUCAUG to GGAUCUUCUCGUUCUAACAAAAAAGACAAAUCAGGCACAAAGCUUGAGAGCAUCUUAGGAUGCAGAGGCGGCAGCCCUCGGUGGCGCGAUAGCGCCAACGCUCUCAACUAUGACACGCAAAACGCGUGCUCCGAUGAAUGGAGUUUAUCAUG, the “polymerase ribozyme fitness (log ratio)” value falls from -3.19 to ≤ -4.2.

Going from GGAUCUUCUCGUUCUAACAAAAAAGACAAAUCUGCCACAAAGCUUGAGAGCAUCAUCGGAUGCAGAGGCGGCAGCCUUCGGUGGCGCGAUAGCGCCAACGUUCUCAACUAUGACACGCAAAACGCGUGCUCCGUUGAAUGAAGUUUAUCAUG to GGAUCUUCUCGAACUAACAAAAGAGAUCAAUCUGCCACAAAGCUUGAGAGCAUUUUCGGAUGCAGAGGCGGCAGCCUUCGGUGGUGCGAUAGUGCCAACGUUCUCAACUAUGACCGGCAAGACGCGUGCUCCGUUGAAUGGAGUUUAUCCUG, the “polymerase ribozyme fitness (log ratio)” value falls from -1.32 to -3.82.

Compared with GGAUCUUCUCGAACUGACAAAAAAGACAAAUCUGCCACAAAGCUUGAGAGCAUCUUCGGAUGCAGAGGCGGCAGCCUUCGGUGGCUCGAUAGCGCCAACGUUCUCAACUAUGACACGCAAAACGCGUGCUCCGUUGAAUGGAGUUUAUCAUG, GGAUCUUCUCGUUCUAACAAAAAAGACAAAUCUGCCACAAAGCUUGAGAGCAUCAUGGGAUGCAGAGGCGGCAGCCUUCGGUGGCGCGAUAGCGCCAACGUUAUCAACUAUGACACGCAAAACGCGUUCUCCGUUGAAUGGAGUUUCUCAUG is lower in “polymerase ribozyme fitness (log ratio)” value: -2.89 for the first, -4.11 for the second.

First: GGAUCUUCUCGAACUAACAACAAAGACAAAUCUGCCACAAAGCUUGAGAGCAUCUACGGGUGCAGAGGCGGCAGCCUUCGGUGGCGCGAUAUCGCCAACGUACUCAACUAUGAUACGCAAAAUGCGUGCUCCGUUGAAUGGAGUUUAUCAUG
Second: GGAUCUUCUCGUUCUAACAAAAAAGACAAAUCUGCCACAAAGCUUGAGAACAACUUCGGAUGCAGAGGCGGCAGCCUUCGGUGGCGUGAUAGCGCCAACGUUCUCAACUAUGACACGCAAAACGCGUGCUCCGUUAAAUGGAGUUUAUCAUG
The “polymerase ribozyme fitness (log ratio)” value of the first is higher: -3.84 for the first, ≤ -4.2 for the second.

Compared with GGAUCUUCUCGUUCUAACAAAAAAGACAAAGCUGCCACAAAGCUUGAGAGCAUCUUCGGGUGCAGAGGCGGCAGCCUUCGGUCGCGCGAUAGCGCCAACGUUCUCAACUAUGACACGCAAAACGCGUGCUCCGUUGAAUGGAGUUUAUCAUG, GGAUCUUCUCGAACUAACAUAAAAGACAAAUCUGACACAAAGCUUGAGAACAUCUUCGGAUGCAGAGGCGGCAGCCUUCGGUCGCGCGAUAGCGCCAACGUUCUCAACUAUGACACGGUAAACGCGUGCUCUGUUGAAUGGAGUUUAUCAUG is lower in “polymerase ribozyme fitness (log ratio)” value: -1.56 for the first, ≤ -4.2 for the second.

GGAUCUUCUCGAACUAGCAAAAAAGACAAAUCUGCCACAAAGCUUGAGCGCAUCUUCGGAUGCAGAGGCGGCAGCCUUCGGUGGCGCGAUAGCGCCAACGUUCUCAGCUAUGACACGCAAAACGCGUGCUCCGUUGAAUGGAGUUUAUCAUG and GGAUCUUCUCGUUCUAACAAAAAACACAAAUCUGUCACAAAGCUUGAGAGCAUCUUCGGAUGCAGAGGCGGCAGCCGUCGGUGGCGCGAUAGCUCCAACGUUCUCAACUAUGACACGCAAAACGCGUGCUCCGUUGAAUGGAGUUUAUCAUG cannot be ordered by “polymerase ribozyme fitness (log ratio)” value: ≤ -4.2 for the first, ≤ -4.2 for the second.

GGAUCUUCUCGAACUAACAAAAUAGACAAAUCUGCCACAAAGCUUGAGAGCAUCUUCGAAUGCAGAGGCGGCAGCCUUCGGUGGCGUGAUAGCGCCAACGUUCUCAACUAUGACACGCAAAACGCGUGCUCCGUUGAAUGGAGUUUAUCAUG and GGAUCUUCUCGUUCUAACAAAAAAGACAAAUCUGCCACAAAGCUUGAGAGCAUCUUCGGAUGCAGAGGCGGCAGCCUUCGGUGGCGCGAUAGUGCCUACGUUUUUAACUAUGACACGCAAAACGCGUGCUCCUUUGAAUGGAGUUUAUCAUG cannot be ordered by “polymerase ribozyme fitness (log ratio)” value: ≤ -4.2 for the first, ≤ -4.2 for the second.

Going from GGAUCUUCUCGAACUAACAAAAAAGACAAAUCUGCCACAAAGCUUGAGAGCAUCUUCGGAUGCAGAGGCGGCAGCCUUCGGUGGCGCGAUAGCGCCAACGUUCUCAACUAUGACACGCAAAACGCGUGCUCCGUUGAAUGGAGUUUAUCAUG to GGAUCUUCUCGUUCUAACAAAAAAGACAAAUCUGCCACAAAGCUUGAGAGCAUCUUCGGAUGCAGAGGCGACAGUCUUCGGUGAUGCGAUAGCGCCAACGUUCUCAACUAUGACACACAAAACGCGUGCUCCGUUGAAUGGAGUUUAUCAUG, the “polymerase ribozyme fitness (log ratio)” value falls from -0.225 to ≤ -4.2.

Going from GGAUCUUCUCGUUCGAACAAAAAAGACAAAUCUGCCACUAAGCUUGAGAGCAUCUUCGGAUGCAGAGGCGGCAGCCUUCGGUGGCUCGAUAGCGCCAACGUGCUCAACUAUGACAUGCAAAACGCGUGCUCCGUUGAAUGGAGUUUAUCAUG to GGAUCUUCUCGUUCUAACAAAAAAGACAAAUCUGCCACAAAGCUUGAGAGCAUCUUCGUAUGCAGAGGCGGCAGCCUUCGGUGGCGCGAUAGCCCCAACGUUCUCAACUAUGAUACGCAAAACGCGUGCUCCGUUGAAUGGAGUUUAUCAUG, the “polymerase ribozyme fitness (log ratio)” value rises from ≤ -4.2 to -2.68.

GGAUCUUCUCGUUCAAACAAUAAAGACAAAUCUGCCACAAAGCUUGAGAGCAUCAUCGGAUGCAGAGGCGGCAGCUUUAGGUGGCGCGAUAGCGCCAACGUUCUCAACUAUGACACGCAAUACGCGUGCUCCGUUGAAUGGAGUUUAUCAUG and GGAUCUUCUCGUUCUAACAAAAAAGACAAAUCUGCCACAAACCUUGAGAGCAUCUUCGGAUGCAGAGGCGGGAGCAUUCGGUGGCGCGAUUGCGCCAACGUUCUCAACUAUGACACGCAUAACGCGUGCUCCGUUGAAUGGAGCUUAUCAUG cannot be ordered by “polymerase ribozyme fitness (log ratio)” value: ≤ -4.2 for the first, ≤ -4.2 for the second.

First: GGAUCUUCUCGUUCUAACAAAAAAGACAAAUCUGCCACAAAGCUUGAGAGCAUCUUCGGAUGCAGAGGCGGCAGCCUUCGGUGGCGCGAUAUCGCCAACGUUCUCAACUAUGACACGCAAAACGUGUGCUCCGUUGAAUGGAGUUUAUCAUG
Second: GGAUCUUCUCGAACUAACAAAUAAGACAAAUCUGCCACAAAGCUUGAGAGCAUCUUCGGAUGCAGAGGCGGCAGCCUUCGGUGGCGCGGUAGCGACAACGUUCUCAACUAUGACACGCAAAACGCGUGCUCCGUUGAAUGGAGUUUAUCAUG
The “polymerase ribozyme fitness (log ratio)” value of the first is higher: -1.06 for the first, -1.67 for the second.

GGAUCUUCUCGUUCUAACAAAAAAGACAAAUCUGCCACAAAGCUUGAGAGCAUCUUCAGAUGCAGAGGCGGCAGCCUUCGGUGGGGCGAUAGCGCCAACGUUCUCGACUAUGACACGCAAAACGCGUGCUCCGUUGUAUGGAGUUUAUCCUG and GGAUCUUCUCGUUCUAACAAAAAAGACAAAUCUGCCACAAAGCUUGAGAGCAUCUUCUGUUGCAGAGGCGGCAGCCUUCGGUGGCCCGAUAGCGCCAACGUUCUCAUCUAUGACACGCAAAACGCGUGCUCCUUUGAAUGGAGUUUAUGAUG cannot be ordered by “polymerase ribozyme fitness (log ratio)” value: ≤ -4.2 for the first, ≤ -4.2 for the second.

Going from GGAUCUUCUCGUUCUAACAAAAAAGACAAAUCUGCCACAAAGCUUGAGAGCAUCUUCGGAUGCAGAGGCGGCAGCCUUCGGUGGCGUGAUAGCGCCAACGUUCUCAACUAUGACACGCAAAACGCGUGCUCCGUUGAAUGGAGUUUAUCAUG to GGAUCUUCUCGAACUAACAAAUAAGACAAAUCUGCCACAACGCUUGAGAGCAGCUUCGGAUGCAGAGGCGGCAGCCUUCGGUGGCGCGAUAGCGCCAACGUUCUCAACUAUGACACGCAAAACGCGUGCUCCGUUGAAUGGAGUUUAUCAUG, the “polymerase ribozyme fitness (log ratio)” value falls from -1.1 to -2.31.

Compared with GGAUCUUCUCGUUCUAACAAAAAAGACAAAUCUGCCACAAAGCUUGAGAGCAUCUUCGGAUGCAGAGGCGGCAGCCUUCGGUGGCGCGAUAGCGCCAACGUUCUCAACUACGACACGCAAAACGCGUGCUCCGUUGAAUGGAGUUUAUCAUG, GGAUCUUCUCGUUCUAACAAAAAAGACAAAUCUGCCACAAAGCUUGAGAGCAUCUCCGAAUGCAGAGGCGGCAGCCUUCGGUGGCGCCAUAGCGCCAACGUUCUCAACUAUGACACGCAAAACGCGUGCUCCGUUGAAUGGAGUUUAUCAUG is lower in “polymerase ribozyme fitness (log ratio)” value: -4 for the first, ≤ -4.2 for the second.

Compared with GGAUCUUCUCGUUCUAACAAAAAAGACAAAUCUGCCACAAAGCUUGAGAGCAACUUCGGAUGCAGAGGCGGCAGCCUUCGGUGGCGCGAUAGCGCCAACGUUCUCAACUAUGACACGCAAAACGCGUGCUCCGUUGAAUGUAGUUUAUCAUG, GGAUCUUCUCGUUCUAACAAAAAAGACAAAUCUGCCACAAAGCUUGAGAGCAUCUUCGGAUGCAGAGGCGGCAGCCUUCGGUGGCGCGAUAGCGCCAACGUUCUCAACGAUGACACGCAAAACGCGUGCUCCGUUGAAUGGAGUUUAUCAUG is lower in “polymerase ribozyme fitness (log ratio)” value: -1.08 for the first, -2.25 for the second.

Compared with GGAUCUUCUCGUUCUAACAAAAAAGACAAAUCUGCCACAAAGCUUGAGAGCAUCUUCGGAUGCAGAGGCGGCAGCCUUCGGUGACGCGAUAGCGCCAACGUUCUCAACUAUGACACGCAAAACGCGUGCUCCGUUGAAUGGAGUUUAUCAUG, GGAUCUUCUCGUUCUAACAAAAAAGACAAAUCUGCCACAAAGCUUGAGAGCAUCUUCGGAUGCAGAGGCGGCAGCCUUCGGUGGCGUGAUAGCGCCAACGUUCUCAACUAUGACACGCAUAACGCGUGCUCCGUUGAAUGGAGUUUAUCAUG is higher in “polymerase ribozyme fitness (log ratio)” value: -1.05 for the first, -0.814 for the second.

From the RNAGym collection of RNA variant scans (doi:10.1073/pnas.2313332121)
